Earlier results on one substance are cited in paper PMC6191370.

The term Kd denotes the constant that tells how readily two partners part at equilibrium.

The target of data set [1] is CD25 (Homo sapiens) (UniProt P01589).
Data set [2] concerns the target intermediate-affinity IL-2R (beta/gamma chains) (Homo sapiens) (UniProt P14784).
UniProt P14784, sequence (P14784 27-240, chain 1 of 2): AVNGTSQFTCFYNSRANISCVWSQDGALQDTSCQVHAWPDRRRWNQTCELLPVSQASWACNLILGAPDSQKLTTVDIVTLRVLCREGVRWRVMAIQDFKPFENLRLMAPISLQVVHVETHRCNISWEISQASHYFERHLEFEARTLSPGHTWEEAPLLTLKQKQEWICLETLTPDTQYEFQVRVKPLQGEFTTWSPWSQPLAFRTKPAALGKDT
UniProt P14784, sequence (P31785 23-262, chain 2 of 2, further chain): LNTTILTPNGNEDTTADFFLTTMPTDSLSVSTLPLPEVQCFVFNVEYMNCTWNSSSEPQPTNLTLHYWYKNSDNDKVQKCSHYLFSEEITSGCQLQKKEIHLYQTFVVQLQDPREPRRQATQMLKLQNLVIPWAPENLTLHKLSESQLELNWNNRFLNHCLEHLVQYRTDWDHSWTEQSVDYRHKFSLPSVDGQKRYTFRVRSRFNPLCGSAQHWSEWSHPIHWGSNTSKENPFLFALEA

UniProt P01589, sequence (P01589 22-240): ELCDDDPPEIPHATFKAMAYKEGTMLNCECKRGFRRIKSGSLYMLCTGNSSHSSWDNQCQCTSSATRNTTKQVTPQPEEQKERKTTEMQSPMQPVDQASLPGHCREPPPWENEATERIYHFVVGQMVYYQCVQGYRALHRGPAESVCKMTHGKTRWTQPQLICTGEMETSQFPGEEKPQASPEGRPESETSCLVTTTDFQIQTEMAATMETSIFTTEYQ

With IL-2 (from UniProt P60568), the dissociation constant Kd in data set [1] was 10 nM; in data set [2] it was 1 nM.
